# Results published in patent publication US20130252987A1, “METHOD OF REGULATING PLASMA LIPOPROTEINS” (MCMASTER UNIVERSITY, priority 2010, published 2013).
# B1: human resistin: recombinant lyophilized purified human resistin (Calbiochem); cysteine-rich cytokine, single 12 kDa band (protein)
# chain: KTLCSMEEAINERIQEVAGSLIFRAISSIGLECQSVTSRGDLATCPRGFAVTGCTCGSACGSWDVRAETTCHCQCAGMDWTGARCCRVQP
# How the values were obtained:
# [1] = test system: human hepatocytes; experiment: cellular apoB100 protein expression in primary human hepatocytes; assay type: cell-based; conditions: 50 ng/mL, 24 hours
# Protocol: (§1) Primary Cells: Fresh wild-type rat and mouse primary heptaocytes were supplied by CellzDirect (Invitrogen, NC) in a 6-well collagen coated plate. Upon arrival, the storage media was removed and incubation media (Williams E Medium, phenol red free, with incubation supplement pack, Gibco, NC) was added according to manufactures' instructions. The cells were incubated at 37° C. with 5% CO2 for 16 hours prior to human resistin (50 ng/mL) treatment for 24 hours. Cryopreserved plateable human hepatocytes, metabolism qualified from multiple normal human donors, were supplied by CellzDirect (Invitrogen, NC). Upon arrival, the cells (4-8 million in 1 mL), according to the manufacturer's instruction, were added to 48 mL warmed thawing medium (CHRM® Medium, Invitrogen, NC) and centrifuged at 100×g for 10 min at room temperature. The pellet was re-suspended in 4 mL plating medium (Williams E Medium, phenol red free, with maintenance supplement pack and 10% FBS, Gibco, NC). The cells were stained by Trypan Blue (Sigma, Canada) and counted by a haemocytometer, followed by seeding 1×10^6 cells/well in a 6-well collagen coated plate (CellzDirect, Invitrogen, NC). The cells were incubated at 37° C. with 5% CO2 for 4 hours to allow the cells to adhere. The plating media was replaced and cell incubated for 16 hours prior to human resistin treatment for 24 hours. […]
# [2] = test system: rat primary hepatocytes; experiment: cellular apoB100 protein expression in primary rat hepatocytes; assay type: cell-based; conditions: 50 ng/mL, 24 hours
# Protocol: as §1
# [3] = test system: microsomal triglyceride transfer protein (MTP); experiment: MTP protein expression and activity assay; assay type: cell-based, human; conditions: 50 ng/mL, 24 hours, HepG2 cells
# Protocol: Cell monolayers were washed twice with ice-cold PBS and once with 5 ml of 1 mM Tris-HCl, pH 7.6, 1 mM EGTA, and 1 mM MgCl2 at 4° C. Cells were then incubated for 2 min at room temperature in 5 ml of ice-cold 1 mM Tris-HCl, pH 7.6, 1 mM EGTA, and 1 mM MgCl2. The buffer was aspirated, and 0.5 ml of the same buffer was added to cells. Cells were scraped and collected in ice-cold tubes, vortexed, and centrifuged (SW55 Ti rotor, 50,000 rpm, 10° C., 1 h), and supernatants were used for MTP assay using the MTP fluorometric activity assay kit (Chylos Inc., NY). The triglyceride transfer activity of MTP is presented as % transfer/h/mg protein.
# Further tests were conducted to investigate mechanisms by which human resistin stimulated increased hepatocyte expression and secretion of apoB protein. […] It was first determined whether human resistin inhibits apoB degradation through the classic proteosome-dependent degradation pathway by adding the optimal dose of human resistin (50 ng/mL) to the proteosome-dependent inhibitor of apoB degradation, lactacystin, at the optimal dose and time (10 μM, 24 hours). An increase in the cellular expression and secretion of apoB in HepG2 cells with lactacystin was observed, confirming its apoB degradation properties (FIG. 8A.). […]
molecule,measurement,setting,value
B1,increase in cellular apoB protein expression versus untreated control cells,[1],40-50%
same,increase in cellular apoB protein expression versus untreated control cells,[2],40-50%
same,MTP activity,[3],significant increases
same,cellular MTP protein expression,[3],significant increases
